From paper PMC9396614

Molecular target: Arctic mutant (E22G) amyloid-β 1-42 peptide (human)

- reduction of the nucleation units generated during Aβ42^arc fibrillization, calculated from the fitted ThT kinetics, with monomeric rh Bri2 BRICHOS up to an equal ratio: 80%
Substance: recombinant human Bri2 BRICHOS domain, monomer (domain or fragment)
